Values of other authors in PMC3221918.

Target: IL-15RαSu soluble ECD (Homo sapiens) (UniProt Q13261)
UniProt Q13261, sequence (Q13261 31-95): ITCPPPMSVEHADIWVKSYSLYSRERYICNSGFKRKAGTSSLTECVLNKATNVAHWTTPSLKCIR

Kd: 0.1 nM
Substance: IL-15 (from UniProt P40933)
